The supplement of paper PMC11246515
± gives the standard deviation of the averaged measurements.

Test: total protein half-life in vivo (active degradation + dilution); higher = more stable protein
[1] = E. coli NCM3722 delta-clpP delta-lon delta-hslV, growth: N-lim chemostat, doubling time 6 h
[2] = E. coli NCM3722 delta-clpP, growth: N-lim chemostat, doubling time 6 h
[3] = E. coli NCM3722 delta-hslV, growth: N-lim chemostat, doubling time 6 h
[4] = E. coli NCM3722 delta-lon, growth: N-lim chemostat, doubling time 6 h
[5] = E. coli NCM3722 delta-smpB, growth: N-lim chemostat, doubling time 6 h
[6] = wild type E. coli NCM3722, growth: C-lim chemostat, doubling time 3 h
[7] = wild type E. coli NCM3722, growth: C-lim chemostat, doubling time 6 h
[8] = wild type E. coli NCM3722, growth: C-lim chemostat, doubling time 12 h
[9] = wild type E. coli NCM3722, growth: N-lim chemostat, doubling time 6 h
[10] = wild type E. coli NCM3722, growth: N-lim chemostat, doubling time 12 h
[11] = wild type E. coli NCM3722, growth: P-lim chemostat, doubling time 6 h
[12] = wild type E. coli NCM3722, growth: P-lim chemostat, doubling time 12 h

Row | Sequence | total protein half-life in vivo [1] | total protein half-life in vivo [2] | total protein half-life in vivo [3] | total protein half-life in vivo [4] | total protein half-life in vivo [5] | total protein half-life in vivo [6] | total protein half-life in vivo [7] | total protein half-life in vivo [8] | total protein half-life in vivo [9] | total protein half-life in vivo [10] | total protein half-life in vivo [11] | total protein half-life in vivo [12]
1 | MSHLKDPTTQYYTGEYPKQKQPTPGIQAKMTPVPDCGEKTYVGSGRLKDRKALVTGGDSGIGRAAAIAYAREGADVAISYLPVEEEDAQDVKKIIEECGRKAVLLPGDLSDEKFARSLVHEAHKALGGLDIMALVAGKQVAIPDIADLTSEQFQKTFAINVFALFWLTQEAIPLLPKGASIITTSSIQAYQPSPHLLDYAATKAAILNYSRGLAKQVAEKGIRVNIVAPGPIWTALQISGGQTQDKIPQFGQQTPMKRAGQPAELAPVYVYLASQESSYVTAEVHGVCGGEHLG [P0AG84] | 5.31 ± 0.2 h | 5.27 ± 0.099 h | 5.82 ± 0.34 h | 5.57 ± 0.34 h | 5.06 ± 0.66 h | 3.13 ± 0.54 h | 6.3 ± 0.59 h | 11.4 ± 2.8 h | 5.32 ± 0.27 h | 9.18 ± 0.35 h | 5.5 ± 0.43 h | 10.73 ± 0.025 h
2 | MSHNVTPNTSRVELRKTLTLVPVVMMGLAYMQPMTLFDTFGIVSGLTDGHVPTAYAFALIAILFTALSYGKLVRRYPSAGSAYTYAQKSISPTVGFMVGWSSLLDYLFAPMINILLAKIYFEALVPSIPSWMFVVALVAFMTAFNLRSLKSVANFNTVIVVLQVVLIAVILGMVVYGVFEGEGAGTLASTRPFWSGDAHVIPMITGATILCFSFTGFDGISNLSEETKDAERVIPRAIFLTALIGGMIFIFATYFLQLYFPDISRFKDPDASQPEIMLYVAGKAFQVGALIFSTITVLASGMAAHAGVARLMYVMGRDGVFPKSFFGYVHPKWRTPAMNIILVGAIALLAINFDLVMATALINFGALVAFTFVNLSVISQFWIREKRNKTLKDHFQYLFLPMCGALTVGALWVNLEESSMVLGLIWAAIGLIYLACVTKSFRNPVPQYEDVA [P0AA47] |  |  |  |  |  | 0.699 ± 0.063 h |  |  |  |  |  | 
3 | MSHPALTQLRALRYCKEIPALDPQLLDWLLLEDSMTKRFEQQGKTVSVTMIREGFVEQNEIPEELPLLPKESRYWLREILLCADGEPWLAGRTVVPVSTLSGPELALQKLGKTPLGRYLFTSSTLTRDFIEIGRDAGLWGRRSRLRLSGKPLLLTELFLPASPLY | 4.9 ± 0.4 h | 2.28 ± 0.017 h | 3.04 ± 0.035 h | 3.5 ± 0.31 h | 2.14 ± 0.061 h | 2.41 ± 0.13 h | 4.27 ± 0.27 h | 7.06 ± 0.53 h | 3.15 ± 0.3 h | 4.66 ± 0.034 h | 4.77 ± 0.55 h | 8.85 ± 0.47 h
4 | MSHQKIIQDLIAWIDEHIDQPLNIDVVAKKSGYSKWYLQRMFRTVTHQTLGDYIRQRRLLLAAVELRTTERPIFDIAMDLGYVSQQTFSRVFRRQFDRTPSDYRHRL [P0A9E2] | 6.13 ± 1.3 h |  |  |  |  |  |  |  |  |  |  | 
5 | MSHRDTLFSAPIARLGDWTFDERVAEVFPDMIQRSVPGYSNIISMIGMLAERFVQPGTQVYDLGCSLGAATLSVRRNIHHDNCKIIAIDNSPAMIERCRRHIDAYKAPTPVDVIEGDIRDIAIENASMVVLNFTLQFLEPSERQALLDKIYQGLNPGGALVLSEKFSFEDAKVGELLFNMHHDFKRANGYSELEISQKRSMLENVMLTDSVETHKARLHNAGFEHSELWFQCFNFGSLVALKAEDAA | 4.36 ± 0.1 h | 4.266 ± 0.023 h | 3.422 ± 0.01 h | 4.69 ± 0.25 h | 3.28 ± 0.41 h | 2.85 ± 0.079 h | 4.75 ± 0.061 h | 6.64 ± 0.99 h | 3.17 ± 0.74 h | 4.86 ± 0.5 h | 4.66 ± 0.48 h | 9.24 ± 0.053 h
6 | MSHTIRDKQKLKARASKIQGQVVALKKMLDEPHECAAVLQQIAAIRGAVNGLMREVIKGHLTEHIVHQGDELKREEDLDVVLKVLDSYIK | 7.38 ± 0.4 h | 7.02 ± 0.26 h |  | 6.29 ± 0.15 h |  | > 4 h | 7.3 ± 0.65 h | 10.8 h | 5.53 ± 0.39 h | 11.2 h | 4.14 ± 1.8 h | 11.9 ± 0.86 h
7 | MSIDRTSPLKPVSTVQPRETTDAPVTNSRAAKTTASTSTSVTLSDAQAKLMQPGSSDINLERVEALKLAIRNGELKMDTGKIADALINEAQQDLQSN [P0AEM4] |  |  |  |  |  | 0.693 ± 0.42 h | 0.442 h | 0.862 ± 0.19 h |  |  |  | 
8 | MSIDWNWGIFLQQAPFGNTTYLGWIWSGFQVTIALSICAWIIAFLVGSFFGILRTVPNRFLSGLGTLYVELFRNVPLIVQFFTWYLVIPELLPEKIGMWFKAELDPNIQFFLSSMLCLGLFTAARVCEQVRAAIQSLPRGQKNAALAMGLTLPQAYRYVLLPNAYRVIVPPMTSEMMNLVKNSAIASTIGLVDMAAQAGKLLDYSAHAWESFTAITLAYVLINAFIMLVMTLVERKVRLPGNMGGK [P0AER3] | 6.3 ± 0.68 h | 5.73 ± 0.57 h | 7.02 ± 1.3 h | 6.414 ± 0.029 h | 5.64 ± 0.34 h | 3.1 ± 0.078 h | 5.71 ± 1.4 h | 12.4 h | 5.35 ± 0.4 h | 12.1 ± 4.6 h | 6.73 h | 12.4 ± 1.9 h
9 | MSIEIANIKKSFGRTQVLNDISLDIPSGQMVALLGPSGSGKTTLLRIIAGLEHQTSGHIRFHGTDVSRLHARDRKVGFVFQHYALFRHMTVFDNIAFGLTVLPRRERPNAAAIKAKVTKLLEMVQLAHLADRYPAQLSGGQKQRVALARALAVEPQILLLDEPFGALDAQVRKELRRWLRQLHEELKFTSVFVTHDQEEATEVADRVVVMSQGNIEQADAPDQVWREPATRFVLEFMGEVNRLQGTIRGGQFHVGAHRWPLGYTPAYQGPVDLFLRPWEVDISRRTSLDSPLPVQVLEASPKGHYTQLVVQPLGWYNEPLTVVMHGDDAPQRGERLFVGLQHARLYNGDERIETRDEELALAQSA | 6.63 ± 1.7 h | 5.04 ± 1.5 h | 2.09 ± 0.0062 h | 2.01 ± 0.088 h | 2.01 ± 0.032 h | 2.4 ± 1.4 h | 3.58 ± 2.8 h | 2.68 ± 0.037 h | 2.08 ± 0.11 h | 2.85 ± 0.09 h | 2.65 ± 0.42 h | 4.77 ± 0.37 h
10 | MSIKTSNTDFKTRIRQQIEDPIMRKAVANAQQRIGANRQKMVDELGHWEEWRDRAAQIRDHVLSNLDAYLYQLSEKVTQNGGHVYFARTKEDATRYILQVAQRKNARKVVKSKSMVTEEIGVNHVLQDAGIQVIETDLGEYILQLDQDPPSHVVVPAIHKDRHQIRRVLHERLGYEGPETPEAMTLFIRQKIREDFLSAEIGITGCNFAVAETGSVCLVTNEGNARMCTTLPKTHIAVMGMERIAPTFAEVDVLITMLARSAVGARLTGYNTWLTGPREAGHVDGPEEFHLVIVDNGRSEVLASEFRDVLRCIRCGACMNTCPAYRHIGGHGYGSIYPGPIGAVISPLLGGYKDFKDLPYACSLCTACDNVCPVRIPLSKLILRHRRVMAEKGITAKAEQRAIKMFAYANSHPGLWKVGMMAGAHAASWFINGGKTPLKFGAISDWMEARDLPEADGESFRSWFKKHQAQEKKNG | 5.21 ± 0.71 h |  | 3.96 ± 3.1 h |  | 1.76 ± 0.072 h | 1.83 ± 0.084 h | 3.47 ± 0.48 h | 4.06 ± 0.2 h | 1.72 h |  | 1.89 h | 3.14 ± 0.62 h
11 | MSILYEERLDGALPDVDRTSVLMALREHVPGLEILHTDEEIIPYECDGLSAYRTRPLLVVLPKQMEQVTAILAVCHRLRVPVVTRGAGTGLSGGALPLEKGVLLVMARFKEILDINPVGRRARVQPGVRNLAISQAVAPHNLYYAPDPSSQIACSIGGNVAENAGGVHCLKYGLTVHNLLKIEVQTLDGEALTLGSDALDSPGFDLLALFTGSEGMLGVTTEVTVKLLPKPPVARVLLASFDSVEKAGLAVGDIIANGIIPGGLEMMDNLSIRAAEDFIHAGYPVDAEAILLCELDGVESDVQEDCERVNDILLKAGATDVRLAQDEAERVRFWAGRKNAFPAVGRISPDYYCMDGTIPRRALPGVLEGIARLSQQYDLRVANVFHAGDGNMHPLILFDANEPGEFARAEELGGKILELCVEVGGSISGEHGIGREKINQMCAQFNSDEITTFHAVKAAFDPDGLLNPGKNIPTLHRCAEFGAMHVHHGHLPFPELERF [P0AEP9] |  |  |  |  |  | 1.69 ± 0.022 h | 3.62 ± 0.18 h | 5.4 ± 0.53 h |  |  | 2.38 ± 0.24 h | 5.7 ± 3.1 h
12 | MSIQNEMPGYNEMNQYLNQQGTGLTPAEMHGLISGMICGGNDDSSWLPLLHDLTNEGMAFGHELAQALRKMHSATSDALQDDGFLFQLYLPDGDDVSVFDRADALAGWVNHFLLGLGVTQPKLDKVTGETGEAIDDLRNIAQLGYDEDEDQEELEMSLEEIIEYVRVAALLCHDTFTHPQPTAPEVQKPTLH [P0A8C4] | > 8 h | 4.56 ± 0.28 h | 3.63 ± 0.19 h | 3.96 ± 0.8 h | 3.76 ± 0.7 h | 2.648 ± 0.026 h | 5.18 ± 0.36 h | 8.97 ± 0.18 h | 3.86 ± 0.19 h | 5.64 ± 1 h | 5.02 ± 1.2 h | 9.3 h
13 | MSIRFARKADCAAIAEIYNHAVLYTAAIWNDQTVDADNRIAWFEARTLAGYPVLVSEENGVVTGYASFGDWRSFDGFRHTVEHSVYVHPDHQGKGLGRKLLSRLIDEARDCGKHVMVAGIESQNQASLHLHQSLGFVVTAQMPQVGTKFGRWLDLTFMQLQLDERTEPDAIG | 5.23 ± 0.39 h | 4.6 ± 0.25 h | 4.9 ± 0.08 h | 5.17 ± 0.18 h | 4.66 ± 0.33 h | 2.77 ± 0.072 h | 5.77 ± 0.34 h | 10.14 ± 0.042 h | 4.93 ± 0.44 h | 9.49 h | 5.912 ± 0.025 h | 12 ± 0.29 h
14 | MSITLSDSAAARVNTFLANRGKGFGLRLGVRTSGCSGMAYVLEFVDEPTPEDIVFEDKGVKVVVDGKSLQFLDGTQLDFVKEGLNEGFKFTNPNVKDECGCGESFHV [P0AAC8] | 3.72 ± 0.52 h | 2.47 ± 1.5 h | 0.964 ± 0.11 h | 2.06 ± 0.1 h | 0.889 ± 0.077 h | 1.2 ± 0.086 h | 1.62 ± 0.07 h | 2.08 ± 0.36 h | 1.14 ± 0.11 h | 1.26 ± 0.022 h | 1.36 ± 0.36 h | 2.42 ± 0.75 h
15 | MSKAGKITAAISGAFLLLIVVAIILIATFDWNRLKPTINQKVSAELNRPFAIRGDLGVVWERQKQETGWRSWVPWPHVHAEDIILGNPPDIPEVTMVHLPRVEATLAPLALLTKTVWLPWIKLEKPDARLIRLSEKNNNWTFNLANDDNKDANAKPSAWSFRLDNILFDQGRIAIDDKVSKADLEIFVDPLGKPLPFSEVTGSKGKADKEKVGDYVFGLKAQGRYNGEPLTGTGKIGGMLALRGEGTPFPVQADFRSGNTRVAFDGVVNDPMKMGGVDLRLKFSGDSLGDLYELTGVLLPDTPPFETDGRLVAKIDTEKSSVFDYRGFNGRIGDSDIHGSLVYTTGKPRPKLEGDVESRQLRLADLGPLIGVDSGKGAEKSKRSEQKKGEKSVQPAGKVLPYDRFETDKWDVMDADVRFKGRRIEHGSSLPISDLSTHIILKNADLRLQPLKFGMAGGSIAANIHLEGDKKPMQGRADIQARRLKLKELMPDVELMQKTLGEMNGDAELRGSGNSVAALLGNSNGNLKLLMNDGLVSRNLMEIVGLNVGNYIVGAIFGDDEVRVNCAAANLNIANGVARPQIFAFDTENALINVTGTASFASEQLDLTIDPESKGIRIITLRSPLYVRGTFKNPQAGVKAGPLIARGAVAAALATLVTPAAALLALISPSEGEANQCRTILSQMKK | 6.24 ± 0.57 h | 5.9 ± 0.17 h | 6.13 ± 0.039 h | 6.42 ± 0.4 h | 5.438 ± 0.026 h | 3.09 ± 0.22 h | 5.72 ± 0.19 h | 10.9 ± 1.2 h | 5.57 ± 0.16 h | 10.9 ± 0.42 h | 5.49 ± 0.3 h | 9.41 ± 0.73 h
